Results from patent publication US20170137467A1 (CHROMOTEK, published 2017).
Residue numbers refer to the chain shown, from its start. Square brackets hold non-standard residues; d marks the D form. GABA = NCCCC(=O)O

T1: BC2T P1C(Abu) (human, SMILES …)
T1 construct: position 1 library, row C(Abu) / C*
T1 peptide: Ac-[GABA]DRKAAVSHWQQ-NH2

T2: BC2T A6P (human)
T2 construct: position 6 library (BC2TA6X), row P
T2 peptide: Ac-PDRKAPVSHWQQ-NH2

T3: BC2T A6S (human)
T3 construct: position 6 library (BC2TA6X), row S
T3 peptide: Ac-PDRKASVSHWQQ-NH2

T4: BC2T A6Y (human)
T4 construct: position 6 library (BC2TA6X), row Y
T4 peptide: Ac-PDRKAYVSHWQQ-NH2

T5: BC2T D2C(Abu) (human, SMILES …)
T5 construct: position 2 library, row C(Abu) / C*
T5 peptide: Ac-P[GABA]RKAAVSHWQQ-NH2

T6: BC2T A5R (human)
T6 construct: position 5 library, row R
T6 peptide: Ac-PDRKRAVSHWQQ-NH2

T7: BC2T V7R (human)
T7 construct: position 7 library, row R
T7 peptide: Ac-PDRKAARSHWQQ-NH2

T8: BC2T K4P (human)
T8 construct: position 4 library, row P
T8 peptide: Ac-PDRPAAVSHWQQ-NH2

T9: BC2T V7H (human)
T9 construct: position 7 library, row H
T9 peptide: Ac-PDRKAAHSHWQQ-NH2

T10: BC2T A5F (human)
T10 construct: position 5 library, row F
T10 peptide: Ac-PDRKFAVSHWQQ-NH2

T11: BC2T P1Y (human)
T11 construct: position 1 library, row Y
T11 peptide: Ac-YDRKAAVSHWQQ-NH2

T12: BC2T A6H (human)
T12 construct: position 6 library (BC2TA6X), row H
T12 peptide: Ac-PDRKAHVSHWQQ-NH2

T13: BC2T A5W (human)
T13 construct: position 5 library, row W
T13 peptide: Ac-PDRKWAVSHWQQ-NH2

T14: BC2T R3Y (human)
T14 construct: position 3 library (BC2TR3X), row Y
T14 peptide: Ac-PDYKAAVSHWQQ-NH2

T15: BC2T R3H (human)
T15 construct: position 3 library (BC2TR3X), row H
T15 peptide: Ac-PDHKAAVSHWQQ-NH2

T16: BC2T K4H (human)
T16 construct: position 4 library, row H
T16 peptide: Ac-PDRHAAVSHWQQ-NH2

T17: BC2T V7N (human)
T17 construct: position 7 library, row N
T17 peptide: Ac-PDRKAANSHWQQ-NH2

T18: BC2T D2W (human)
T18 construct: position 2 library, row W
T18 peptide: Ac-PWRKAAVSHWQQ-NH2

T19: BC2T A5Y (human)
T19 construct: position 5 library, row Y
T19 peptide: Ac-PDRKYAVSHWQQ-NH2

T20: BC2T A6N (human)
T20 construct: position 6 library (BC2TA6X), row N
T20 peptide: Ac-PDRKANVSHWQQ-NH2

T21: BC2T A5Q (human)
T21 construct: position 5 library, row Q
T21 peptide: Ac-PDRKQAVSHWQQ-NH2

T22: BC2T A5T (human)
T22 construct: position 5 library, row T
T22 peptide: Ac-PDRKTAVSHWQQ-NH2

B1: BC2 nanobody (BC2-Nb) (VHH)
VHH: QVQLVESGGGLVQPGGSLTLSCTASGFTLDHYDIGWFRQAPGKEREGVSCINNSDDDTYYADSVKGRFTIFMDNAKDTVYLQMNSLKPEDTAIYYCAEARGCKRGRYEYDFWGQGTQVTVSS
notes: immobilised on agarose/sepharose beads in this assay; also called BC2 nanotrap (immobilised form); not shown: C-terminal 6xHis-tag added by pHEN6 vector
B2: BC2-NbR106S (VHH)
VHH: B1 VHH with R106S
notes: immobilised on beads in this assay; not shown: C-terminal 6xHis-tag added by pHEN6 vector

Columns and labels:
Assay in all cases: library pulldown, LC-MS of supernatant; ratio vs GFP-Nb control (0=captured, 1=not captured)
BC2T P1C(Abu) = target: T1, BC2T P1C(Abu)
Outline: (§1)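 Unbound peptide left in supernatant after 1 h pulldown in PBS/0.01% CHAPS measured by reversed-phase LC-MS (8–30% eluent B gradient, 20 min).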

BC2T A6P = target: T2, BC2T A6P
Outline: as §1

BC2T A6S = target: T3, BC2T A6S
Outline: as §1

BC2T A6Y = target: T4, BC2T A6Y
Outline: as §1

BC2T D2C(Abu) = target: T5, BC2T D2C(Abu)
Outline: as §1

BC2T A5R = target: T6, BC2T A5R
Outline: as §1

BC2T V7R = target: T7, BC2T V7R
Outline: as §1

BC2T K4P = target: T8, BC2T K4P
Outline: as §1

BC2T V7H = target: T9, BC2T V7H
Outline: as §1

BC2T A5F = target: T10, BC2T A5F
Outline: as §1

BC2T P1Y = target: T11, BC2T P1Y
Outline: as §1

BC2T A6H = target: T12, BC2T A6H
Outline: as §1

BC2T A5W = target: T13, BC2T A5W
Outline: as §1

BC2T R3Y = target: T14, BC2T R3Y
Outline: as §1

BC2T R3H = target: T15, BC2T R3H
Outline: as §1

BC2T K4H = target: T16, BC2T K4H
Outline: as §1

BC2T V7N = target: T17, BC2T V7N
Outline: as §1

BC2T D2W = target: T18, BC2T D2W
Outline: as §1

BC2T A5Y = target: T19, BC2T A5Y
Outline: as §1

BC2T A6N = target: T20, BC2T A6N
Outline: as §1

BC2T A5Q = target: T21, BC2T A5Q
Outline: as §1

BC2T A5T = target: T22, BC2T A5T
Outline: as §1

Row | Binder | ratio (BC2T P1C(Abu)) | ratio (BC2T A6P) | ratio (BC2T A6S) | ratio (BC2T A6Y) | ratio (BC2T D2C(Abu)) | ratio (BC2T A5R) | ratio (BC2T V7R) | ratio (BC2T K4P) | ratio (BC2T V7H) | ratio (BC2T A5F) | ratio (BC2T P1Y) | ratio (BC2T A6H) | ratio (BC2T A5W) | ratio (BC2T R3Y) | ratio (BC2T R3H) | ratio (BC2T K4H) | ratio (BC2T V7N) | ratio (BC2T D2W) | ratio (BC2T A5Y) | ratio (BC2T A6N) | other results
1 | B1 | 0.1 | 1.1 | 0.5 | 1 | 0.1 | 0.2 | 0.2 | 1 | 0.3 | 0.1 | 0.1 | 1.1 | 0 | 0.7 | 0.3 | 0.1 | 0.2 | 0.2 | 0.1 | 1 | ratio (BC2T A5Q): 0.2; ratio (BC2T A5T): 0.1
2 | B2 | 0.3 | 1 | 0.8 | 0.9 | 0.3 | 0.1 | 0.2 | 1 | 0.4 | 0.2 | 0.3 | 0.9 | 0.1 | 1 | 0.7 | 0.3 | 0.4 | 0.3 | 0.2 | 1 | ratio (BC2T A5Q): 0.3; ratio (BC2T A5T): 0.3
